T1: Chl1 (S. cerevisiae (budding yeast), UniProt P22516 1-861)
T1 construct: Chl1, budding yeast; codon-optimized ectopic copy; also called Flag-tagged Chl1; Chl1 helicase
T1 sequence (looked up): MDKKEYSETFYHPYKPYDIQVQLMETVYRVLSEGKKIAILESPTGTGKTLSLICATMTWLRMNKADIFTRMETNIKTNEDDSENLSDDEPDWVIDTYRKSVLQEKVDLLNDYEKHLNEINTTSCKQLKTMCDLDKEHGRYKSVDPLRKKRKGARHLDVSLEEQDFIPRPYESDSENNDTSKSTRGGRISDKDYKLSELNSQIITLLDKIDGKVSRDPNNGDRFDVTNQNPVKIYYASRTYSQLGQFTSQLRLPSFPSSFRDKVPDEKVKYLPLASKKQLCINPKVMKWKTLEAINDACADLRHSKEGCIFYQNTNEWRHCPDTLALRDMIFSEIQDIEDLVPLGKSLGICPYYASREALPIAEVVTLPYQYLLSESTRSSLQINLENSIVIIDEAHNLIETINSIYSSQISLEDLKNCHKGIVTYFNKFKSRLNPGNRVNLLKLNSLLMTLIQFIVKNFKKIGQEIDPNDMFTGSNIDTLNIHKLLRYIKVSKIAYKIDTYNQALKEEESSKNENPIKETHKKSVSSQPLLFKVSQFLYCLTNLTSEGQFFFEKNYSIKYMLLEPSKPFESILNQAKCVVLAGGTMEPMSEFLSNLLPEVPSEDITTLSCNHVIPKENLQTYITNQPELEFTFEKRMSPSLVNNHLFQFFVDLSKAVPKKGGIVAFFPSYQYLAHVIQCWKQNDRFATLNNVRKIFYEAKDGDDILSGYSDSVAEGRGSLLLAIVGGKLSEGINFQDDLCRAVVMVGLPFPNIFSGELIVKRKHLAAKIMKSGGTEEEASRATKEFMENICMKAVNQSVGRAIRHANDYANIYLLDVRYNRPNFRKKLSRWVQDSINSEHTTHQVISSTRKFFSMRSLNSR

T2: Tof1 (S. cerevisiae (budding yeast), UniProt P53840 1-1238)
T2 construct: Tof1, budding yeast; the Tof1 chain of m2; Stood in the cross-linking sample as a chain of the Tof1-Csm3 complex; source: purified as part of Tof1-Csm3, as previously described (Yeeles et al. 2017)
T2 sequence (looked up): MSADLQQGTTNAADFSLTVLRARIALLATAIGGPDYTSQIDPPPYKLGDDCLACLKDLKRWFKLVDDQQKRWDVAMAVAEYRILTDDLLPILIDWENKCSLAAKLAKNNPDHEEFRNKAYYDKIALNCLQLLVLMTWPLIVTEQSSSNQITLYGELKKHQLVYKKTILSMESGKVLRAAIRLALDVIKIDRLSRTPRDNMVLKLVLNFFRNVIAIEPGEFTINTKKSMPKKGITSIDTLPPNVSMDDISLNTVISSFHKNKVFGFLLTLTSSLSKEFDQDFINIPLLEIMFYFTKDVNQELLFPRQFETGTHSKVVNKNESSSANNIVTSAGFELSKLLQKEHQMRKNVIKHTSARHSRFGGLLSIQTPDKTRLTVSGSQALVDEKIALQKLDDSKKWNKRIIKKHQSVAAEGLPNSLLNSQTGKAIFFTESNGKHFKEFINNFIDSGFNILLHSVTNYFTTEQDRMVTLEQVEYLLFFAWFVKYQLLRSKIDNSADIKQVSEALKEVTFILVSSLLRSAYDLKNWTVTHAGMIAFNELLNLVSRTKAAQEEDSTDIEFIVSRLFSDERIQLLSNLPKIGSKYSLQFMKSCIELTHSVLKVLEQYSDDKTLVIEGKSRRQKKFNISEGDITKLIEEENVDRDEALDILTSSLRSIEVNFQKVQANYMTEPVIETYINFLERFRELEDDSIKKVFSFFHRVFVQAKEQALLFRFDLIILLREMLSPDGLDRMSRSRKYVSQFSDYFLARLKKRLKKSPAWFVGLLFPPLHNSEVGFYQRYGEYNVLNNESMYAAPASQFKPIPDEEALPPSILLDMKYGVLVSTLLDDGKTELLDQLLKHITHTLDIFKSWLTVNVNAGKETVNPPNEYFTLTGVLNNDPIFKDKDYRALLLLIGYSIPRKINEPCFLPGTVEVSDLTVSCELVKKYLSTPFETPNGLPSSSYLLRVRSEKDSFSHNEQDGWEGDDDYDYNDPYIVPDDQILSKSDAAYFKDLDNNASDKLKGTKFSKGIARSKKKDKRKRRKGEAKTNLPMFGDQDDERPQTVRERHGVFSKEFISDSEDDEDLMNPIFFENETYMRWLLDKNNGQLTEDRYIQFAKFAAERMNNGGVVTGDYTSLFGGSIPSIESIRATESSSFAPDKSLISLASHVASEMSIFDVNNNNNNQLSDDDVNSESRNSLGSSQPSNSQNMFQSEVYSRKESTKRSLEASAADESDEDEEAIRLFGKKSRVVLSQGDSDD

B1: Tof1-Csm3 complex (complex, S. cerevisiae (budding yeast))
chain 1: MSADLQQGTTNAADFSLTVLRARIALLATAIGGPDYTSQIDPPPYKLGDDCLACLKDLKRWFKLVDDQQKRWDVAMAVAEYRILTDDLLPILIDWENKCSLAAKLAKNNPDHEEFRNKAYYDKIALNCLQLLVLMTWPLIVTEQSSSNQITLYGELKKHQLVYKKTILSMESGKVLRAAIRLALDVIKIDRLSRTPRDNMVLKLVLNFFRNVIAIEPGEFTINTKKSMPKKGITSIDTLPPNVSMDDISLNTVISSFHKNKVFGFLLTLTSSLSKEFDQDFINIPLLEIMFYFTKDVNQELLFPRQFETGTHSKVVNKNESSSANNIVTSAGFELSKLLQKEHQMRKNVIKHTSARHSRFGGLLSIQTPDKTRLTVSGSQALVDEKIALQKLDDSKKWNKRIIKKHQSVAAEGLPNSLLNSQTGKAIFFTESNGKHFKEFINNFIDSGFNILLHSVTNYFTTEQDRMVTLEQVEYLLFFAWFVKYQLLRSKIDNSADIKQVSEALKEVTFILVSSLLRSAYDLKNWTVTHAGMIAFNELLNLVSRTKAAQEEDSTDIEFIVSRLFSDERIQLLSNLPKIGSKYSLQFMKSCIELTHSVLKVLEQYSDDKTLVIEGKSRRQKKFNISEGDITKLIEEENVDRDEALDILTSSLRSIEVNFQKVQANYMTEPVIETYINFLERFRELEDDSIKKVFSFFHRVFVQAKEQALLFRFDLIILLREMLSPDGLDRMSRSRKYVSQFSDYFLARLKKRLKKSPAWFVGLLFPPLHNSEVGFYQRYGEYNVLNNESMYAAPASQFKPIPDEEALPPSILLDMKYGVLVSTLLDDGKTELLDQLLKHITHTLDIFKSWLTVNVNAGKETVNPPNEYFTLTGVLNNDPIFKDKDYRALLLLIGYSIPRKINEPCFLPGTVEVSDLTVSCELVKKYLSTPFETPNGLPSSSYLLRVRSEKDSFSHNEQDGWEGDDDYDYNDPYIVPDDQILSKSDAAYFKDLDNNASDKLKGTKFSKGIARSKKKDKRKRRKGEAKTNLPMFGDQDDERPQTVRERHGVFSKEFISDSEDDEDLMNPIFFENETYMRWLLDKNNGQLTEDRYIQFAKFAAERMNNGGVVTGDYTSLFGGSIPSIESIRATESSSFAPDKSLISLASHVASEMSIFDVNNNNNNQLSDDDVNSESRNSLGSSQPSNSQNMFQSEVYSRKESTKRSLEASAADESDEDEEAIRLFGKKSRVVLSQGDSDD
chain 2: MDQDFDSLLLGFNDSDSVQKDPTVPNGLDGSVVDPTIADPTAITARKRRPQVKLTAEKLLSDKGLPYVLKNAHKRIRISSKKNSYDNLSNIIQFYQLWAHELFPKAKFKDFMKICQTVGKTDPVLREYRVSLFRDEMGMSFDVGTRETGQDLERQSPMVEEHVTSAEERPIVADSFAQDKRNVNNVDYDNDEDDDIYHLSYRNRRGRVLDERGNNETVLNNVVPPKEDLDALLKTFRVQGPVGLEENEKKLLLGWLDAHRKMEKGSMTEEDVQLIQSLEEWEMNDIEGQHTHYDLLPGGDEFGVDQDELDAMKEMGF
notes: Tof1, budding yeast; Csm3, budding yeast; Held on calmodulin dynabeads when used as bait; source: purified as previously described (Yeeles et al. 2017)
B2: Scc1 (natural protein, S. cerevisiae (budding yeast), UniProt Q12158 1-566, looked up)
chain: MVTENPQRLTVLRLATNKGPLAQIWLASNMSNIPRGSVIQTHIAESAKEIAKASGCDDESGDNEYITLRTSGELLQGIVRVYSKQATFLLTDIKDTLTKISMLFKTSQKMTSTVNRLNTVTRVHQLMLEDAVTEREVLVTPGLEFLDDTTIPVGLMAQENSMERKVQGAAPWDTSLEVGRRFSPDEDFEHNNLSSMNLDFDIEEGPITSKSWEEGTRQSSRNFDTHENYIQDDDFPLDDAGTIGWDLGITEKNDQNNDDDDNSVEQGRRLGESIMSEEPTDFGFDLDIEKEAPAGNIDTITDAMTESQPKQTGTRRNSKLLNTKSIQIDEETENSESIASSNTYKEERSNNLLTPQPTNFTTKRLWSEITESMSYLPDPILKNFLSYESLKKRKIHNGREGSIEEPELNVSLNLTDDVISNAGTNDNSFNELTDNMSDFVPIDAGLNEAPFPEENIIDAKTRNEQTTIQTEKVRPTPGEVASKAIVQMAKILRKELSEEKEVIFTDVLKSQANTEPENITKREASRGFFDILSLATEGCIGLSQTEAFGNIKIDAKPALFERFINA
notes: Scc1, budding yeast; the Scc1 chain of m1; Stood in the cross-linking sample as a chain of cohesin; source: purified as part of cohesin, as previously described (Minamino et al. 2018)

Key:
Conditions in all cases: both partners purified
[1] = molecular target: T3, cohesin trimer (Smc1-Smc3-Scc1) (S. cerevisiae (budding yeast), UniProt P32908 1-1225; P47037 1-1230; Q12158 1-566); assay: pull-down; Tof1-Csm3 (200-600 nM) held on calmodulin dynabeads; cohesin tetramer, trimer or Smc1-Smc3 dimer as prey; interaction buffer with 100 mM potassium glutamate; Coomassie staining; benzonase or NaCl added where indicated
T3 construct: Smc1, cohesin subunit, budding yeast; Smc3, cohesin subunit, budding yeast; Scc1, cohesin subunit, budding yeast; source: purified following the same protocol as cohesin tetramers (IgG agarose, 3C protease cleavage); copies: + +
T3 sequence (P32908 whole entry, chain 1 of 2): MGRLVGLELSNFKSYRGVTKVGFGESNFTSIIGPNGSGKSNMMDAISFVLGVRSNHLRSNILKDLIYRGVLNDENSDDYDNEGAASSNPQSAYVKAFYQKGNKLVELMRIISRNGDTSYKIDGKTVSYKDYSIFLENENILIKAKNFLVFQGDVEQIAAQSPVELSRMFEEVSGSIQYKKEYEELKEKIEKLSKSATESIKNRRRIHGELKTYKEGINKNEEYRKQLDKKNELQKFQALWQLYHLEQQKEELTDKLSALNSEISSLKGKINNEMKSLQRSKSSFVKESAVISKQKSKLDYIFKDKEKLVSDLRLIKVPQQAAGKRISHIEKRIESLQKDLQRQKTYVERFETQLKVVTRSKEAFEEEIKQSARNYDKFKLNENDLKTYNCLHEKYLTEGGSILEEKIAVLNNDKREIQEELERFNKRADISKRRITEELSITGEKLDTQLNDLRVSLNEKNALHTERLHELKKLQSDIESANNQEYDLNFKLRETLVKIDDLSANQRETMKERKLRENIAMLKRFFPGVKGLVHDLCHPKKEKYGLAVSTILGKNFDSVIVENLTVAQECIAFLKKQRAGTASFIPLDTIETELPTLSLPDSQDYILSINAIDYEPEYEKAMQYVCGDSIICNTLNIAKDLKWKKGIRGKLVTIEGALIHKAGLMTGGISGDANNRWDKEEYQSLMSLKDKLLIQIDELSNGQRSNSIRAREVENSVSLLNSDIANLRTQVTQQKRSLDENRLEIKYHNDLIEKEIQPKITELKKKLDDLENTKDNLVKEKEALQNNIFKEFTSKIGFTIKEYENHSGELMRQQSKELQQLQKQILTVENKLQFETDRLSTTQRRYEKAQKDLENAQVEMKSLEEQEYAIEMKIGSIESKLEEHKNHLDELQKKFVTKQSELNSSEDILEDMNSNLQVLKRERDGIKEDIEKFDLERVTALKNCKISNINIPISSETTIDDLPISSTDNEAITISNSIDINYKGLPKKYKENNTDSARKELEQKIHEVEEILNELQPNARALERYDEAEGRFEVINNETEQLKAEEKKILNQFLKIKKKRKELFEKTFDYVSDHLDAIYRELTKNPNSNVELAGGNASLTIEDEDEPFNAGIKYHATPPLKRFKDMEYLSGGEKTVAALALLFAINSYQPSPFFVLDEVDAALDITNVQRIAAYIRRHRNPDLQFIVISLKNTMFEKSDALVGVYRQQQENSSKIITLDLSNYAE
T3 sequence (P47037 whole entry, chain 2 of 2): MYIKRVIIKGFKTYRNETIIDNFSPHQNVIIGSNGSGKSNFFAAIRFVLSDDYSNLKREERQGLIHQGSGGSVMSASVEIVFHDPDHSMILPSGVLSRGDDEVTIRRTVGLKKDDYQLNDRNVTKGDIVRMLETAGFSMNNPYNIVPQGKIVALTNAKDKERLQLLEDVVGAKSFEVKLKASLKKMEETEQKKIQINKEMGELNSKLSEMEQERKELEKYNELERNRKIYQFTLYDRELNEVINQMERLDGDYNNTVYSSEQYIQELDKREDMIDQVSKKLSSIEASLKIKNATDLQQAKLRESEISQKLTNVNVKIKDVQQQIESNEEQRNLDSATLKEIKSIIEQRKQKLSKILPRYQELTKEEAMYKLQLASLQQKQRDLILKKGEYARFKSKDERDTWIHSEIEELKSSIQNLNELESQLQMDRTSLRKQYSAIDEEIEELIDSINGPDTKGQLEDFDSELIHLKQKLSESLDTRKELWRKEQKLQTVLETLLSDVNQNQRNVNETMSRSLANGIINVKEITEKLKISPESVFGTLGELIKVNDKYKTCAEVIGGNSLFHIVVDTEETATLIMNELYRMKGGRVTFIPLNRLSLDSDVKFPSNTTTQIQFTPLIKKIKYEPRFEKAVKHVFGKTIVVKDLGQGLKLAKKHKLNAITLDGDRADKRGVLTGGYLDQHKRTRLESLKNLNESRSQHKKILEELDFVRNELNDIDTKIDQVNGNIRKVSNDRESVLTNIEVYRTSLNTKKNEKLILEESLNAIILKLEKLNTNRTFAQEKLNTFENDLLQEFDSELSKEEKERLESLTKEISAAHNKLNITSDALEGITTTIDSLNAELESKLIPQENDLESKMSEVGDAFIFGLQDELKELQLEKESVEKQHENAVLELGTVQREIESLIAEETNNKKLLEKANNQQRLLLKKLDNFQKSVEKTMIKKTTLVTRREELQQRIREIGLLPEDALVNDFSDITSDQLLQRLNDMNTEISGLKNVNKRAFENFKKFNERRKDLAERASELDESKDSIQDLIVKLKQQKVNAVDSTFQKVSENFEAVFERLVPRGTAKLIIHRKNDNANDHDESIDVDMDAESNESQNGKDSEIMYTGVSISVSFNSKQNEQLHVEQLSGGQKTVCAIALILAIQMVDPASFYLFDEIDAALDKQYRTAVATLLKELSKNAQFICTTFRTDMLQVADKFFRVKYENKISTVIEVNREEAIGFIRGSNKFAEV

Smc1-Smc3 dimer = molecular target: T4, Smc1-Smc3 dimer (S. cerevisiae (budding yeast), UniProt P32908 1-1225; P47037 1-1230); assay: as above
T4 construct: Smc1, cohesin subunit, budding yeast; Smc3, cohesin subunit, budding yeast; also called SMC dimer; SMC dimers (Smc1-Smc3); source: purified following the same protocol as cohesin tetramers (IgG agarose, 3C protease cleavage); not shown: Protein A, C-terminal, cleaved
T4 sequence (P32908 whole entry, chain 1 of 2): as the sequence (P32908 whole entry, chain 1 of 2) above
T4 sequence (P47037 whole entry, chain 2 of 2): as the sequence (P47037 whole entry, chain 2 of 2) above

[2] = molecular target: T5, cohesin tetramer complex (Smc1-Smc3-Scc1-Scc3) (S. cerevisiae (budding yeast), UniProt P32908 1-1225; P47037 1-1230; Q12158 1-566; P40541 1-1150); assay: pull-down; cohesin tetramer (200-600 nM) held on Protein A dynabeads by anti-Pk antibody (Pk tag on Smc1); 200 nM prey, 30 °C, 5 min; 25 mM HEPES-KOH pH 7.6, 100 mM potassium glutamate, 10 mM magnesium acetate, 0.12% NP-40; SDS elution, Coomassie staining
T5 construct: Smc1, cohesin subunit, budding yeast; Smc3, cohesin subunit, budding yeast; Scc1, cohesin subunit, budding yeast; Scc3, cohesin subunit, budding yeast; also called cohesin complex; source: purified as previously described (Minamino et al. 2018): IgG agarose, 3C protease cleavage; copies: + + +
T5 sequence (P32908 whole entry, chain 1 of 3): as the sequence (P32908 whole entry, chain 1 of 2) above
T5 sequence (P47037 whole entry, chain 2 of 3): as the sequence (P47037 whole entry, chain 2 of 2) above
T5 sequence (P40541 whole entry, chain 4 of 3): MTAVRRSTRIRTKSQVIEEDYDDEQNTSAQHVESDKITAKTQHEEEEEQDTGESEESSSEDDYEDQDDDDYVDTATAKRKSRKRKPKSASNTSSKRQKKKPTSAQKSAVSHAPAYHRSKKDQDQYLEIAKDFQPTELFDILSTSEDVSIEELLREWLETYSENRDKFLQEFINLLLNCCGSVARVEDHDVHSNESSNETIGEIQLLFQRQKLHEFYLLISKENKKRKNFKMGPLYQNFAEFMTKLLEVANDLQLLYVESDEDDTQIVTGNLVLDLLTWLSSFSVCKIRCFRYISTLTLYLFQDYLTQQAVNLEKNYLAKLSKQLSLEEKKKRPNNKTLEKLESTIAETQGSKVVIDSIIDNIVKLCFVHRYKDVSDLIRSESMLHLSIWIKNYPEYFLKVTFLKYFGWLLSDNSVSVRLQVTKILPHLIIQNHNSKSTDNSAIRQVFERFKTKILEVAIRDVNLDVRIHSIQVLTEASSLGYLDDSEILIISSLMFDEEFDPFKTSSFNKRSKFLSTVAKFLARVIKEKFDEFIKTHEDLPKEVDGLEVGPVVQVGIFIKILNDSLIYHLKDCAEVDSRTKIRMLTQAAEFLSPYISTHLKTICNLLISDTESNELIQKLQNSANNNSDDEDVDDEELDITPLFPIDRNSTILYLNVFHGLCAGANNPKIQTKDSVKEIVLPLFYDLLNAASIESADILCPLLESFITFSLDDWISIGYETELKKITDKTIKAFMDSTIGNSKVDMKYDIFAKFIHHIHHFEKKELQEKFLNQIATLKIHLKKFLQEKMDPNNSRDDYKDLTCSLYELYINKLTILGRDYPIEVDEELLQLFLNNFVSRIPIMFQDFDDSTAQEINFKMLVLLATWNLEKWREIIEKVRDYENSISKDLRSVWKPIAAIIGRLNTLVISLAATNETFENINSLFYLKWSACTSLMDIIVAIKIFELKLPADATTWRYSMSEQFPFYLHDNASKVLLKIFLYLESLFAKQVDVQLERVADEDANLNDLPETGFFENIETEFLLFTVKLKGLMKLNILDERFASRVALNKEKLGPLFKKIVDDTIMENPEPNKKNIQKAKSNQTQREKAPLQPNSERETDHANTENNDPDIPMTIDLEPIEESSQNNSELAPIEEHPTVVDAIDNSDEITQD

Chl1 = molecular target: T1, Chl1; assay: cross-linking; CLMS with sulfo-SDA; cohesin, Tof1-Csm3 and Chl1 with or without Mrc1 at 300-350 nM, 30 °C 5 min, cross-linker 2 h at 4 °C, UV 365 nm; LC-MS/MS, 1% FDR at residue-pair level; two samples merged
Tof1 = molecular target: T2, Tof1; assay: as above

Binder | binding result [1] | binding result (Smc1-Smc3 dimer) | binding result [2] | binding result (Chl1) | binding result (Tof1)
B1 | binds | binds | binds |  | 
B2 |  |  |  | binds | binds

Source: paper PMC10247859, “Replisome-cohesin interactions provided by the Tof1-Csm3 and Mrc1 cohesion establishment factors” (Chromosoma, 2023)
